Common to all, as to assay: cell-based or functional assay
For assay [1], the target named is T1, NF-ATp expressed from an NF-ATp expression plasmid (pREP4-NF-ATp).
T1 sequence (Q60591 1-927, species assumed, looked up): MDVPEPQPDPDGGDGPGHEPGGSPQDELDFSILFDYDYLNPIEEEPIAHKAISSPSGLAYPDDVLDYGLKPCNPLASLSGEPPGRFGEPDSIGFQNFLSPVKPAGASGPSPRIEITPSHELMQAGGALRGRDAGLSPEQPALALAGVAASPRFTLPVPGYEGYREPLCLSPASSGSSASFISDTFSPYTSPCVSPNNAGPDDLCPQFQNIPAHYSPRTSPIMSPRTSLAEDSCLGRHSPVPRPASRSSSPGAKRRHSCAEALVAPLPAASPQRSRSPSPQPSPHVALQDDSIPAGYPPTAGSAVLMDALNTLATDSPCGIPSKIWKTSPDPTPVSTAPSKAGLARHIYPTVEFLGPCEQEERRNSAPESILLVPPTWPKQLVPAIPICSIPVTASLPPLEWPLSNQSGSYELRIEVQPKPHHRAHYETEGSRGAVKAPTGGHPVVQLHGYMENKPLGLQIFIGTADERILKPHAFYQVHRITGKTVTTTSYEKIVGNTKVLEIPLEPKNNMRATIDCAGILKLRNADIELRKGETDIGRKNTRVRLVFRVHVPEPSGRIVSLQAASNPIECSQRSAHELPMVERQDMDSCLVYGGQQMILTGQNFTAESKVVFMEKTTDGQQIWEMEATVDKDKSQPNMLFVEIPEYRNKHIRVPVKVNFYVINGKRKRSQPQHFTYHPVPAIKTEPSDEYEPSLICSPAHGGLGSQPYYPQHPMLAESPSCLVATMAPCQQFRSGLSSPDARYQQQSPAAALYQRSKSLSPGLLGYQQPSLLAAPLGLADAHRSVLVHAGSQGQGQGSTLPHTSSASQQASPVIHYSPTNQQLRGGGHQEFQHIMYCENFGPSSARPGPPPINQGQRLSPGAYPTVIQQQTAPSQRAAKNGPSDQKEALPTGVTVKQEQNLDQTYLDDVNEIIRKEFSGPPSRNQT

Assay [2] addresses T2, NF-AT3 expressed from an expression construct.
T2 sequence (Q14934 1-902, species assumed, looked up): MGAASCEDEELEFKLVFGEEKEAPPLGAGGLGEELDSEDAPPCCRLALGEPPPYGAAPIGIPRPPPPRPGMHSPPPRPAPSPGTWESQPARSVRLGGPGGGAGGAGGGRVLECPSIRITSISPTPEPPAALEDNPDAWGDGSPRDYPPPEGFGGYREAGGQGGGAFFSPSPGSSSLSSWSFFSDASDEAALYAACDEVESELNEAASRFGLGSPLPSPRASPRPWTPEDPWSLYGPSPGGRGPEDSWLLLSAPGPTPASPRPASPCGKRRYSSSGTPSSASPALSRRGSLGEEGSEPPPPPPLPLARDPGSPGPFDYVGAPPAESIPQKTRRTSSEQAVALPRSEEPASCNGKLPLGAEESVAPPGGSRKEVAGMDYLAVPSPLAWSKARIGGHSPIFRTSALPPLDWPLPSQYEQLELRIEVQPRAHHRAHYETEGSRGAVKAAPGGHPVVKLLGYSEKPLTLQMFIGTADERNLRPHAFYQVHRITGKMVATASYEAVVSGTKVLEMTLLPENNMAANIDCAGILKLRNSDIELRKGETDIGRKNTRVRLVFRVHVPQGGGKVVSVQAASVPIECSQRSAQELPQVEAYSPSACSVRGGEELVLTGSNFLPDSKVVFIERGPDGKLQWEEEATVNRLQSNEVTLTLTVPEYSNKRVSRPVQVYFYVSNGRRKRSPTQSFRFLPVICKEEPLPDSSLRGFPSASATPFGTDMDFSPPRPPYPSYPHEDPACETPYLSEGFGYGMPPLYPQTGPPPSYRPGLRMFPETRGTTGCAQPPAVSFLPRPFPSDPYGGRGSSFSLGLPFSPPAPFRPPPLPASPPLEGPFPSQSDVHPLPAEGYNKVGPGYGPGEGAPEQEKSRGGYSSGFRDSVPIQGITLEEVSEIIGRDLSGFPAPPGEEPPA

Assay [3] has as its target T3, NF-ATc expressed from an expression construct.
T3 sequence (O95644 1-943, species assumed, looked up): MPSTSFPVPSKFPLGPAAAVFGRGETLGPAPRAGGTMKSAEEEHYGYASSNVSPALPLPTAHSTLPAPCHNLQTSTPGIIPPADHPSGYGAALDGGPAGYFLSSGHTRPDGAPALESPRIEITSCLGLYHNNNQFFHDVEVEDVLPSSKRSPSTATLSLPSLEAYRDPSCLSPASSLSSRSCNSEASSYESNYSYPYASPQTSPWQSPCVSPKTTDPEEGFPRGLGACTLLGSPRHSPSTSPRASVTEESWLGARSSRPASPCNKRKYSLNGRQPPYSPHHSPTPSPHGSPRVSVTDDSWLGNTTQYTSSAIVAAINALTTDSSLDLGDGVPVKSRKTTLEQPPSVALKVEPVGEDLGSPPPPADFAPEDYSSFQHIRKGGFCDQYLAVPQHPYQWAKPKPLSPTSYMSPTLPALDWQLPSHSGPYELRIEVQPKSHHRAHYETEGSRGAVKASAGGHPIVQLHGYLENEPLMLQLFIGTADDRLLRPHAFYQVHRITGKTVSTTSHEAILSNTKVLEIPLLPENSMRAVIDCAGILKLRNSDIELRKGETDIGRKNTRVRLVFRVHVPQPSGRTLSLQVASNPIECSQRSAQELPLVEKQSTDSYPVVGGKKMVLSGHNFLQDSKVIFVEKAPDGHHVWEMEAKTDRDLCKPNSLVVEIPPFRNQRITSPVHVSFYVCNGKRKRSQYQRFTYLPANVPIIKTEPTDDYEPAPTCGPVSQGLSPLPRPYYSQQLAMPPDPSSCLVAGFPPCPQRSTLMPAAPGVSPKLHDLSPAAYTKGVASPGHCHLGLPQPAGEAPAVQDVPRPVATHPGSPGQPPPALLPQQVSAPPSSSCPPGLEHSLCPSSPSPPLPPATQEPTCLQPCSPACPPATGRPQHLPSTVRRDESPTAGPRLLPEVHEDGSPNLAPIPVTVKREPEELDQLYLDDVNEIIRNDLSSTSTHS

The target in assay [4] is T1, NF-ATp expressed from an NF-ATp expression plasmid (pREP4-NF-ATp). The source holds these as a separate data set.
The target of assay [5] is T4, NF-AT4 expressed from an expression construct.
T4 sequence (Q12968 2-1075, species assumed, looked up): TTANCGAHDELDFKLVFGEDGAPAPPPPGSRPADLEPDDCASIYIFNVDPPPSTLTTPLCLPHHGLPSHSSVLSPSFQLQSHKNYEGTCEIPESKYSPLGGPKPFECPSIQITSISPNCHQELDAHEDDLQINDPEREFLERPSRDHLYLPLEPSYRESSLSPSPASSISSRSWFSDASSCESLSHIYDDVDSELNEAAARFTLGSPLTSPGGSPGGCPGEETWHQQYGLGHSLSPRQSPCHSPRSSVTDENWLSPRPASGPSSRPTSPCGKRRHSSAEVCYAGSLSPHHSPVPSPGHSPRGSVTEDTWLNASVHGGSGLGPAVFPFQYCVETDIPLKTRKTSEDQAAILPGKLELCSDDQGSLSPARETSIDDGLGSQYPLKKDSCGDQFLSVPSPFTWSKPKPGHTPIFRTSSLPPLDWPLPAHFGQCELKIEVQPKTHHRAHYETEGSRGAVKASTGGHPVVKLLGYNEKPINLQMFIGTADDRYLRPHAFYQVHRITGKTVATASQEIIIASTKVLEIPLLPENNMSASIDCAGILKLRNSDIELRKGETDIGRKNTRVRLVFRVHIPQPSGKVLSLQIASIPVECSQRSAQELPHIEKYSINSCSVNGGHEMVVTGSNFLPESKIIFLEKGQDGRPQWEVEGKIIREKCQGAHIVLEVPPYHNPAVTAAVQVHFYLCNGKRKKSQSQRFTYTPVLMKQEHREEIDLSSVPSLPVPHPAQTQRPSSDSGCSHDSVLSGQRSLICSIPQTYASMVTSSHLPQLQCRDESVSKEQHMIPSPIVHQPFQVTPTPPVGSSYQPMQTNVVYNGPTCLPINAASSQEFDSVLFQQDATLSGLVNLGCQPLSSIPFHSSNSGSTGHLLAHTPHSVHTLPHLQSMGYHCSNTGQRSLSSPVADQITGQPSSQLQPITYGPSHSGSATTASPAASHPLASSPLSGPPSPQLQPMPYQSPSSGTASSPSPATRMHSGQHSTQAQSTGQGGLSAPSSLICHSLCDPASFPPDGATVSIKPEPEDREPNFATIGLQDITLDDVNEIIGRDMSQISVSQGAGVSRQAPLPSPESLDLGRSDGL

On to “c-Maf expressed from the c-Maf expression vector pMEX-Maf (full-length 4.3 kb c-maf cDNA clone) (from UniProt P54843 1-370)”, for which, in assay [1], the CAT Activity (fold induction), IL-4 CAT reporter in M12 cells, no PMA/iono., Exp. I (fold induction) is 136; the CAT Activity (fold induction), IL-4 CAT reporter in M12 cells, no PMA/iono., Exp. II (fold induction) turned out to be 54; the CAT Activity (fold induction), IL-4 CAT reporter in M12 cells, no PMA/iono., Exp. III (fold induction) worked out at 26.3; the CAT Activity (fold induction), IL-4 CAT reporter in M12 cells, with PMA/iono., Exp. I (fold induction) is 138. Besides, in assay [1], the CAT Activity (fold induction), IL-4 CAT reporter in M12 cells, with PMA/iono., Exp. II (fold induction) turned out to be 100 and the CAT Activity (fold induction), IL-4 CAT reporter in M12 cells, with PMA/iono., Exp. III (fold induction) came out at 54.7.

B1: NIP45 expressed from a NIP45 expression plasmid (protein)
chain: MAEPLRGRGPRSRGGRGARRARGARGRCPRARQSPARLIPDTVLVDLVSDSDEEVLEVADPVEVPVARLPAPAKPEQDSDSDSEGAAEGPAGAPRTLVRRRRRRLLDPGEAPVVPVYSGKVQSSLNLIPDNSSLLKLCPSEPEDEADLTNSGSSPSEDDALPSGSPWRKKLRKKCEKEEKKMEEFPDQDISPLPQPSSRNKSRKHTEALQKLREVNKRLQDLRSCLSPKQHQSPALQSTDDEVVLVEGPVLPQSSRLFTLKIRCRADLVRLPVRMSEPLQNVVDHMANHLGVSPNRILLLFGESELSPTATPSTLKLGVADIIDCVVLASSSEATETSQELRLRVQGKEKHQMLEISLSPDSPLKVLMSHYEEAMGLSGHKLSFFFDGTKLSGKELPADLGLESGDLIEVWG
As for B1, the values for the transactivation of the 3X NF-AT-CAT reporter in HepG2 cells in assay [2], in assay [3] and in assay [5] were 3 fold, 4 fold and 2 fold, respectively. In addition, the CAT activity, 3X NF-AT-CAT reporter in HepG2 cells, relative to NF-ATp alone in assay [4] fell in the range of 4 to 5 fold. Besides, the CAT activity, 3X NF-AT-CAT reporter in HepG2 cells, relative to vector alone in assay [4] is 25 to 30 fold.

The record behind these values is US20080038235A1.
